Results from the supplement of paper PMC10266784.

B1: library; numbered along this chain (parent)
chain: MAAAAAAAAEQQSSNGPVKKSMREKAVERRSVNKEHNSNFKAGYIPIDEDRLHKTGLRGRKGNLAICVIILLFILAVINLIITLVIWAVIRIGPNGCDSMEFHESGLLRFKQVSDMGVIHPLYKSTVGGRRNENLVITGNNQPIVFQQGTTKLSVENNKTSITSDIGMQFFDPRTQNILFSTDYETHEFHLPSGVKSLNVQKASTERITSNATSDLNIKVDGRAIVRGNEGVFIMGKTIEFHMGGNMELKAENSIILNGSVMVSTTRLPSSSSGDQLGSGDWVRYKLCMCADGTLFKVQVTSQNMGCQISDNPCGNTH

Variants of: B1
Assay: SGCB cell-surface expression functional score (HA stain, bin4 vs bin1, normalised to synonymous) (log10 ratio); higher = more cell-surface SGCB (functional)
Experimental: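 Deep mutational scan of full-length human SGCB (YFP-SGCB-HA, NNN codon sublibraries A-F) delivered by lentivirus at low MOI into ADG-HEK293 cells stably expressing SGCA, SGCD and SGCG. YFP-positive cells were stained for surface HA on unpermeabilized cells and FACS-sorted into bins. The functional score is log10(frequency in high bin 4 / frequency in low bin 1), normalised per chunk so that synonymous variants have mean 0 and SD 0.5. Scores are the median over codons and over duplicate biological replicates; scores below -0.5 are called non-functional. Scale: negative means deleterious.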

Variant	SGCB cell-surface expression functional score (log10)
MAAAAAAAAEQQSSNGPVKKSMREKAVERRSVNKEHHSNFKAGYIPIDEDRLHKTGLRGRKGNLAICVIILLFILAVINLIITLVIWAVIRIGPNGCDSMEFHESGLLRFKQVSDMGVIHPLYKSTVGGRRNENLVITGNNQPIVFQQGTTKLSVENNKTSITSDIGMQFFDPRTQNILFSTDYETHEFHLPSGVKSLNVQKASTERITSNATSDLNIKVDGRAIVRGNEGVFIMGKTIEFHMGGNMELKAENSIILNGSVMVSTTRLPSSSSGDQLGSGDWVRYKLCMCADGTLFKVQVTSQNMGCQISDNPCGNTH [N37H]	0.41
MAAAAAAAAEQQSSNGPVKKSMREKAVERRSVNKEHESNFKAGYIPIDEDRLHKTGLRGRKGNLAICVIILLFILAVINLIITLVIWAVIRIGPNGCDSMEFHESGLLRFKQVSDMGVIHPLYKSTVGGRRNENLVITGNNQPIVFQQGTTKLSVENNKTSITSDIGMQFFDPRTQNILFSTDYETHEFHLPSGVKSLNVQKASTERITSNATSDLNIKVDGRAIVRGNEGVFIMGKTIEFHMGGNMELKAENSIILNGSVMVSTTRLPSSSSGDQLGSGDWVRYKLCMCADGTLFKVQVTSQNMGCQISDNPCGNTH [N37E]	0.3
MAAAAAAAAEQQSSNGPVKKSMREKAVERRSVNKEHVSNFKAGYIPIDEDRLHKTGLRGRKGNLAICVIILLFILAVINLIITLVIWAVIRIGPNGCDSMEFHESGLLRFKQVSDMGVIHPLYKSTVGGRRNENLVITGNNQPIVFQQGTTKLSVENNKTSITSDIGMQFFDPRTQNILFSTDYETHEFHLPSGVKSLNVQKASTERITSNATSDLNIKVDGRAIVRGNEGVFIMGKTIEFHMGGNMELKAENSIILNGSVMVSTTRLPSSSSGDQLGSGDWVRYKLCMCADGTLFKVQVTSQNMGCQISDNPCGNTH [N37V]	-0.13
MAAAAAAAAEQQSSNGPVKKSMREKAVERRSVNKEHLSNFKAGYIPIDEDRLHKTGLRGRKGNLAICVIILLFILAVINLIITLVIWAVIRIGPNGCDSMEFHESGLLRFKQVSDMGVIHPLYKSTVGGRRNENLVITGNNQPIVFQQGTTKLSVENNKTSITSDIGMQFFDPRTQNILFSTDYETHEFHLPSGVKSLNVQKASTERITSNATSDLNIKVDGRAIVRGNEGVFIMGKTIEFHMGGNMELKAENSIILNGSVMVSTTRLPSSSSGDQLGSGDWVRYKLCMCADGTLFKVQVTSQNMGCQISDNPCGNTH [N37L]	0.05
MAAAAAAAAEQQSSNGPVKKSMREKAVERRSVNKEHPSNFKAGYIPIDEDRLHKTGLRGRKGNLAICVIILLFILAVINLIITLVIWAVIRIGPNGCDSMEFHESGLLRFKQVSDMGVIHPLYKSTVGGRRNENLVITGNNQPIVFQQGTTKLSVENNKTSITSDIGMQFFDPRTQNILFSTDYETHEFHLPSGVKSLNVQKASTERITSNATSDLNIKVDGRAIVRGNEGVFIMGKTIEFHMGGNMELKAENSIILNGSVMVSTTRLPSSSSGDQLGSGDWVRYKLCMCADGTLFKVQVTSQNMGCQISDNPCGNTH [N37P]	-0.1
MAAAAAAAAEQQSSNGPVKKSMREKAVERRSVNKEHRSNFKAGYIPIDEDRLHKTGLRGRKGNLAICVIILLFILAVINLIITLVIWAVIRIGPNGCDSMEFHESGLLRFKQVSDMGVIHPLYKSTVGGRRNENLVITGNNQPIVFQQGTTKLSVENNKTSITSDIGMQFFDPRTQNILFSTDYETHEFHLPSGVKSLNVQKASTERITSNATSDLNIKVDGRAIVRGNEGVFIMGKTIEFHMGGNMELKAENSIILNGSVMVSTTRLPSSSSGDQLGSGDWVRYKLCMCADGTLFKVQVTSQNMGCQISDNPCGNTH [N37R]	-0.21
MAAAAAAAAEQQSSNGPVKKSMREKAVERRSVNKEHWSNFKAGYIPIDEDRLHKTGLRGRKGNLAICVIILLFILAVINLIITLVIWAVIRIGPNGCDSMEFHESGLLRFKQVSDMGVIHPLYKSTVGGRRNENLVITGNNQPIVFQQGTTKLSVENNKTSITSDIGMQFFDPRTQNILFSTDYETHEFHLPSGVKSLNVQKASTERITSNATSDLNIKVDGRAIVRGNEGVFIMGKTIEFHMGGNMELKAENSIILNGSVMVSTTRLPSSSSGDQLGSGDWVRYKLCMCADGTLFKVQVTSQNMGCQISDNPCGNTH [N37W]	-0.53
MAAAAAAAAEQQSSNGPVKKSMREKAVERRSVNKEHSSNFKAGYIPIDEDRLHKTGLRGRKGNLAICVIILLFILAVINLIITLVIWAVIRIGPNGCDSMEFHESGLLRFKQVSDMGVIHPLYKSTVGGRRNENLVITGNNQPIVFQQGTTKLSVENNKTSITSDIGMQFFDPRTQNILFSTDYETHEFHLPSGVKSLNVQKASTERITSNATSDLNIKVDGRAIVRGNEGVFIMGKTIEFHMGGNMELKAENSIILNGSVMVSTTRLPSSSSGDQLGSGDWVRYKLCMCADGTLFKVQVTSQNMGCQISDNPCGNTH [N37S]	-0.21
MAAAAAAAAEQQSSNGPVKKSMREKAVERRSVNKEHYSNFKAGYIPIDEDRLHKTGLRGRKGNLAICVIILLFILAVINLIITLVIWAVIRIGPNGCDSMEFHESGLLRFKQVSDMGVIHPLYKSTVGGRRNENLVITGNNQPIVFQQGTTKLSVENNKTSITSDIGMQFFDPRTQNILFSTDYETHEFHLPSGVKSLNVQKASTERITSNATSDLNIKVDGRAIVRGNEGVFIMGKTIEFHMGGNMELKAENSIILNGSVMVSTTRLPSSSSGDQLGSGDWVRYKLCMCADGTLFKVQVTSQNMGCQISDNPCGNTH [N37Y]	-0.46
MAAAAAAAAEQQSSNGPVKKSMREKAVERRSVNKEHKSNFKAGYIPIDEDRLHKTGLRGRKGNLAICVIILLFILAVINLIITLVIWAVIRIGPNGCDSMEFHESGLLRFKQVSDMGVIHPLYKSTVGGRRNENLVITGNNQPIVFQQGTTKLSVENNKTSITSDIGMQFFDPRTQNILFSTDYETHEFHLPSGVKSLNVQKASTERITSNATSDLNIKVDGRAIVRGNEGVFIMGKTIEFHMGGNMELKAENSIILNGSVMVSTTRLPSSSSGDQLGSGDWVRYKLCMCADGTLFKVQVTSQNMGCQISDNPCGNTH [N37K]	-0.39
